Test results: the supplement of paper PMC7877785
± gives the uncertainty stated by the source.

Experiment: self-splicing fitness, log relative to wild type (ln ratio); higher = more splicing; Tetrahymena group I intron in knt gene, E. coli kanamycin selection, DiMSum; sequences stand for … in CUCUCU…GGAGGGAAAAGUUAUCAGGCAUGCACCUGGUAGCUAGUCUUUAAACCAAUAGAUUGCAUCGGUUUAAAAGGCAAGACCGUCAAAUUGCGGGAAAGGGGUCAACAGCCGUUCAGUACCAAGUCUCAGGGGAAACUUUGAGAUGGCCUUGCAAAGGGUAUGGUAAUAAGCUGACGGACAUGGUCCUAACCACGCAGCCAAGUCCUAAGUCAACAGAUCUUCUGUUGAUAUGGAUGCAGUUCACAGACUAAAUGUCGGUCGGGGAAGAUGUAUUCUUCUCAUAAGAUAUAGUCGGACCUCUCCUUAAUGGGAGCUAGCGGAUGAAGUGAUGCAACACUGGAGCCGCUGGGAACUAAUUUGUAUGCGAAAGUAUAUUGAUUAGUUUUGGAGUACUCGUGGUCG
In short: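 Pooled colonies went to amplicon sequencing on an Illumina HiSeq 2500 after six replicate transformations. The plates were LB agar with 100 μg/mL carbenicillin, 50 μM IPTG and 0.2% rhamnose, with or without 25 μg/mL kanamycin, incubated overnight at 37°C or 30°C. The E. coli BL21(DE3) library had all eight P1ex-region intron nucleotides randomised, the intron placed in the knt kanamycin-resistance gene on pET-22b(+). DiMSum fitness is the error-weighted combination of replicate fold changes, kanamycin against none, normalised to wild type.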

Row | Sequence | self-splicing fitness (ln) (30 °C) | self-splicing fitness (ln) (37 °C)
1 | UGUUAGCAAUAUUACGUGGU | -4.24 ± 0.19 | -2.76 ± 0.14
2 | UGUUAGCAAUAUUACGUGUG | -0.767 ± 0.12 | -0.724 ± 0.13
3 | UGUUAGCAAUAUUACGUUAG | -0.971 ± 0.12 | -1.26 ± 0.12
4 | UGUUAGCAAUAUUACGUUGA | -1.59 ± 0.21 | -0.731 ± 0.19
5 | UGUUAGCAAUAUUACGUUUU | -3.9 ± 0.33 | -2.19 ± 0.24
6 | UUAAAGCAAUAUUACGACAU | -0.271 ± 0.012 | 0.189 ± 0.032
7 | UUAAAGCAAUAUUACGACCA | -0.0875 ± 0.22 | 0.312 ± 0.25
8 | UUAAAGCAAUAUUACGACCC | -0.686 ± 0.28 | -0.355 ± 0.29
9 | UUAAAGCAAUAUUACGAGCU | -0.888 ± 0.073 | -0.532 ± 0.1
10 | UUAAAGCAAUAUUACGAUUA | 0.6 ± 0.089 | 0.448 ± 0.097
11 | UUAAAGCAAUAUUACGAUUG | -2.03 ± 0.11 | -0.734 ± 0.11
12 | UUAAAGCAAUAUUACGCACU | -0.0158 ± 0.068 | 0.681 ± 0.095
13 | UUAAAGCAAUAUUACGCCUC | -2.29 ± 0.19 | -1.43 ± 0.24
14 | UUAAAGCAAUAUUACGGAAA | -0.926 ± 0.092 | -1.29 ± 0.12
15 | UUAAAGCAAUAUUACGGACC | -2.27 ± 0.18 | 0.778 ± 0.16
16 | UUAAAGCAAUAUUACGGAGU | -3.35 ± 0.21 | -1.68 ± 0.19
17 | UUAAAGCAAUAUUACGGCGA | 0.464 ± 0.17 | 0.659 ± 0.21
18 | UUAAAGCAAUAUUACGGCUG | 0.262 ± 0.083 | 0.525 ± 0.12
19 | UUAAAGCAAUAUUACGGGGG | -1.83 ± 0.13 | -2.16 ± 0.2

Row | Sequence | self-splicing fitness (ln) (30 °C) | self-splicing fitness (ln) (37 °C)
20 | UUAAAGCAAUAUUACGUAUA | -1.26 ± 0.12 | -0.271 ± 0.14
21 | UUAAAGCAAUAUUACGUCAG | -0.815 ± 0.065 | 0.0256 ± 0.093
22 | UUAAAGCAAUAUUACGUCCC | -1.51 ± 0.11 | -0.906 ± 0.14
23 | UUAAAGCAAUAUUACGUGUC | -1.09 ± 0.14 | -1.42 ± 0.16
24 | UUAAAGCAAUAUUACGUUAC | -3.66 ± 0.19 | -0.9 ± 0.2
25 | UUACAGCAAUAUUACGAACU | -2.26 ± 0.15 | -0.279 ± 0.13
26 | UUACAGCAAUAUUACGAAUC | -3.27 ± 0.27 | -2.13 ± 0.3
27 | UUACAGCAAUAUUACGACGA | -0.196 ± 0.077 | 0.136 ± 0.12
28 | UUACAGCAAUAUUACGAGCA | -1.65 ± 0.14 | -0.698 ± 0.11
29 | UUACAGCAAUAUUACGAGGA | -2.24 ± 0.19 | -0.838 ± 0.15
30 | UUACAGCAAUAUUACGCACU | -0.534 ± 0.12 | -0.572 ± 0.14
31 | UUACAGCAAUAUUACGCAUU | -2.73 ± 0.17 | -1.52 ± 0.14
32 | UUACAGCAAUAUUACGCCUA | 0.181 ± 0.11 | 0.542 ± 0.12
33 | UUACAGCAAUAUUACGCUUG | -1.23 ± 0.12 | -0.126 ± 0.13
34 | UUACAGCAAUAUUACGGAAA | -1.42 ± 0.14 | -0.561 ± 0.14
35 | UUACAGCAAUAUUACGGACC | -3.25 ± 0.4 | -1.41 ± 0.32
36 | UUACAGCAAUAUUACGGCAU | -2.01 ± 0.074 | -0.552 ± 0.087
37 | UUACAGCAAUAUUACGGCUU | -1.13 ± 0.082 | -1.35 ± 0.1
38 | UUACAGCAAUAUUACGGGGA | -0.473 ± 0.076 | -0.871 ± 0.089
